{"source": "the supplement of paper PMC9170038"}
{"system": "MS2 coat protein", "test": "apparent KD of MS2 coat protein; higher = weaker reporter binding", "conditions": "Eterna round: R107; input ligand: theophylline 2 mM", "method_in_brief": "(§1)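 The designed RNA switches were transcribed on-chip from Illumina sequencing clusters. In 100 mM Tris-HCl pH 7.5, 80 mM KCl and 4 mM MgCl2, without or with constant ligand, they were titrated with SNAP-549-labelled MS2 coat protein from 0.7 or 1.5 nM to 3 µM in twofold steps. Apparent KD is the per-design median of normalised cluster binding-curve fits.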", "units": {"apparent KD of MS2 coat protein": "nM"}}
{"sequence": "UGGAGUAUCAGACAUGAGGAUCACCCAUGUCGAGGACCGGUACGGCCGCCACUCGGCAGUUUGCGUCCUCAGGUACUCCGGGUAA [Edlatearis]", "apparent KD of MS2 coat protein": 15.3}
{"sequence": "UGGGUAGCAUAGAUUGAUAGCUACACUGAAGGAGCGAGGAUAACCUCAGGUAGGUCGCAGACAUGAGGAUCACCCAUGUAGAUGG [Same State Arginine A GF17]", "apparent KD of MS2 coat protein": 252}
{"sequence": "UCGCUCUGGGUGAGUUCCGGAGAUGUGGAAGGAGCGCUCGAAAGAGCAGGUAGGUCGCCAACGGACAUGAGGAUCACCCAUGUAC [Same State - Arginine A (Freestyle 21)]", "apparent KD of MS2 coat protein": 34.4}
{"sequence": "AGCCGGAUUACGGCCGCCACUGUAGACGUGACGAAAGUCGCGUCAACAUGAGGAUCACCCAUGUACAGGACCGGGUGGUCGGGCG [Omei Tryp B SS A v5]", "apparent KD of MS2 coat protein": 240}
{"sequence": "CUCAUCCACGCGGCCGCCACUAUAUUGUGGUGCGAAUGUGUCGUAAUACAUGAGGAUCACCCAUGUAGGACCGGGCGUGGAUGAG [#09 Exclusion Tryptophan B]", "apparent KD of MS2 coat protein": 13.5}
{"sequence": "GAGUUCCUGAGAGAUACCAGUGAAGCCACAUGAGGAUCACCCAUGUCCCUCACUCCGGCCCACCCUUGGCAGCUCGAAAGAUGGA [Exclusion Theophylline B GF 21]", "apparent KD of MS2 coat protein": 403}
{"sequence": "UGGUACUAGGCGGCCGCCACUGGGAGAUACAUGAGGAUCACCCAUGUUUAAUGCCGAGAGGCAACUAGGACCGGGCCUAGUACAU", "apparent KD of MS2 coat protein": 127}
{"sequence": "AAUGUAUUCCACAUGAGGAUCACCCAUGUGCGAGGACCGGUACGGCCGCCACUCGGUGUUGGGAUCUGUUCUGAAUACAUUAAUG [XTryp A #23]", "apparent KD of MS2 coat protein": 40.3}
{"sequence": "GGGCGCGUGGACUGGCGUGCUCCGCUCCGUCGAGGACCGGUACGGCCGCCACUCGACAUGAGGAUCACCCAUGUGUGCGCUCGCG [#1 Exclusion - Tryptophan A Attempt #18 (HarryS)]", "apparent KD of MS2 coat protein": 40.4}
{"sequence": "UGUAACAUGAGGAUCACCCAUGUGAGUGAUACCAGACUAGUGUUAGUCCCUUGGCAGCACGCUGGGCGAGUGUGUAGUCUAUGCG [Same State - Theophylline A (Freestyle 16)]", "apparent KD of MS2 coat protein": 117}
{"system": "MS2 coat protein", "test": "apparent KD of MS2 coat protein; higher = weaker reporter binding", "conditions": "Eterna round: R107; input ligand: tryptophan 2.4 mM", "method_in_brief": "as §1", "units": {"apparent KD of MS2 coat protein": "nM"}}
{"sequence": "UACAUAUGCCGAAGGAGCGUGAGAUGCAAAGCAUCAUUCCUCACAUGAGGAUCACCCAUGUCACAGGUAGGUCGCGGCAUAUGUU [ArgBX 3]", "apparent KD of MS2 coat protein": 96.9}
{"sequence": "UGACAUUGCUCAGAUACCAGACGUGAGCAUCAGCCAUGUGCCAACAAGUACAAAAUAAAUGUCCCUUGGCAGCUGAGCAAUGUCU [TheoBX 22 #MS2Left #AlternativeMS2 #Theo22]", "apparent KD of MS2 coat protein": 16.9}
{"sequence": "CGGCUCAUAAUGGAUACCAGUCCAGCAUAGAAACCUUGACACAUGAGGAUCACCCAUGUUGACCCUUGGCAGCCAUUGAUCAUAC [theeternabot_exclusion_MS2_Theo_B_28]", "apparent KD of MS2 coat protein": 21.7}
{"sequence": "AGCUCGCAUCCUCAAGCGUCAAAGACGCGUCGAGGACCGGUACGGCCGCCACUCGACCUGAGGAACACCCAGGUCCUCGCGAGCA [TrypAX 7 #SwitchBubble #AlternativeMS2 #MS2Late #CuTurnoff]", "apparent KD of MS2 coat protein": 236}
{"sequence": "UUGUAUAUGCGAAGGAGCGGGAAAUAUAUAUAUAUAAUCCUAACAUGAGGAUCACCCAUGUCCCAGGUAGGUCGCGCAUAUGUGG [12.G]", "apparent KD of MS2 coat protein": 54.9}
{"sequence": "ACAUGAGGAUCACCCAUGUCAGGGCACGAUACCAGCUGAUCCGAUGGCCCUUGGCAGCGUGACGUGUGGUCAUGAGGAUCACCCG [kvfmullin]", "apparent KD of MS2 coat protein": 182}
{"sequence": "AUACAUGAGGAUCACCCAUGUUAUAGUGAAGGAGCGACAUUUAGGUCAGGUAGGUCGCACUAUAGUAUUAUAAUUCUUAGUUCUU [JR_ExcArginiA_Sub018]", "apparent KD of MS2 coat protein": 22}
{"sequence": "CCGCACAUGAGGAUCACCCAUGUCAGGGAUACCAGCCCAGACAUGGGCCCUUGGCAGCCCUGUAGCUGACGAAAGUCAGCAGCGG [Omei Theo A SS A v1]", "apparent KD of MS2 coat protein": 44.7}
{"sequence": "AUAUUUAACGGAAGGAGCGCGGAAUAAUAAGUGGGUAAACAUGAGGAUCACCCAUGUAAACCGCAGGUAGGUCGCCGAAUAAUAA [AstrosEXyARgB#4]", "apparent KD of MS2 coat protein": 68.4}
{"sequence": "AUCAUGGCCAUCGAUACCAGCUACAUGAGGAUCACCCAUGUAAACGGCCCGGUGAGAUGUAGCCCUUGGCAGCGAAGGGUCGAGG [Inenenatti]", "apparent KD of MS2 coat protein": 14.6}
{"sequence": "AUGCAUAUCAGAAGGAGCGUCAUUAACAUGAGGAUCACCCAUGUAACAUUGAAUUCGAUGAGACAGGUAGGUCGCUGAAUAGUAA [SS-ArgB26]", "apparent KD of MS2 coat protein": 31.1}
{"sequence": "ACAUGAGGGCGAAGGAGCGCGUACAUGAGGAUCACCCAUGUCUAUAUCCGUCCGCGUGUAACGCAGGUAGGUCGCGCUGUUAAUU [#14 Exclusion - Arginine B]", "apparent KD of MS2 coat protein": 16.2}
{"sequence": "UUCGUUUGCGGAAGGAGCGACGGACAUCGGUGACCCACGCACAUGAGGAUCACCCAUGUACGUCAGGUAGGUCGCCGCUAAGAGU [XArg-B4]", "apparent KD of MS2 coat protein": 12.4}
{"sequence": "GGACUAACCAGAAGGAGCGACGCAAGCAGAAACUGCAAUCCUCCGCACGAGGAUCACCCGUGUCAGGUAGGUCGCUGGUUAGUCG [ArgBX 28]", "apparent KD of MS2 coat protein": 29.2}
{"sequence": "UGUAACAUGAGGAUCACCCAUGUGAGUGAUACCAGACUAGUGUUGGUCCCUUGGCAGCACGCUGGACGAAUGUGUAGUCUAUGCG [Same State - Theophylline A (Freestyle 18)]", "apparent KD of MS2 coat protein": 77.4}
{"sequence": "GGCACAUGUGGAAGGAGCGUCGUACGAGCUACAUGAGGAUCACCCAUGUCGGUUAGUGUCCGACAGGUAGGUCGCCACAUUUAAC [Isiser]", "apparent KD of MS2 coat protein": 195}
{"sequence": "CCGGGCUGUGGAGACAUAGCCCGGACUGAAGGAGCGGGAAUAAACCCAGGUAGGUCGCAGAGAUCCACAUGAGGAUCACCCAUGU [!0.S]", "apparent KD of MS2 coat protein": 36.7}
{"sequence": "UGGAGUAUCAGACAUGAGGAUCACCCAUGUCGAGGACCGGUACGGCCGCCACUCGGCAGUUUGCGUCCUCAGGUACUCCGGGUAA [Edlatearis]", "apparent KD of MS2 coat protein": 27.7}
{"sequence": "AGAUUACAUGUUUUAAUAAGAUAAACUGAUACCAGUGUAUAUAUUCACCCUUGGCAGCAGCAACAUGAGGAUCACCCAUGUAUUA [JR_SSTheophyA_Sub015]", "apparent KD of MS2 coat protein": 16.7}
{"sequence": "UGGGUAGCAUAGAUUGAUAGCUACACUGAAGGAGCGAGGAUAACCUCAGGUAGGUCGCAGACAUGAGGAUCACCCAUGUAGAUGG [Same State Arginine A GF17]", "apparent KD of MS2 coat protein": 209}
{"sequence": "UCGCUCUGGGUGAGUUCCGGAGAUGUGGAAGGAGCGCUCGAAAGAGCAGGUAGGUCGCCAACGGACAUGAGGAUCACCCAUGUAC [Same State - Arginine A (Freestyle 21)]", "apparent KD of MS2 coat protein": 40.3}
{"sequence": "ACGAUACGACAUGAGGAUCACCCAUGUGAUACCAGCCUGGAAACAGGCCCUUGGCAGCACAAAUACUCCAGAAACGUAUCGAAAA [MAT - Exclusion Theophlline A - Mod of Eli - D6]", "apparent KD of MS2 coat protein": 156}
{"sequence": "GAGUUCCUGAGAGAUACCAGUGAAGCCACAUGAGGAUCACCCAUGUCCCUCACUCCGGCCCACCCUUGGCAGCUCGAAAGAUGGA [Exclusion Theophylline B GF 21]", "apparent KD of MS2 coat protein": 141}
{"sequence": "AUCUCAUAGAGUGAUACCAGACUACAUGAGGAUCACCCAUGUUACAUUUAAAUAUCAUUUGUCCCUUGGCAGCACAUUAAGUACA [JR_Nu_ExcTheophyB_Sub019]", "apparent KD of MS2 coat protein": 23.4}
{"sequence": "ACGACGCAUAGUGAUACCAGUAGAACAUGAGGAUCACCCAUGUCUGUGACGCACAAAUUCUGCCCUUGGCAGCACUAUGCGUCAG [SSTheo B #6]", "apparent KD of MS2 coat protein": 12.1}
{"sequence": "UCAUUUGAGUGAGAUGUAAGGUAUCAUGAUACCAGUAGAUAAUUAUACCCUUGGCAGCAUAACAUGAGGAUCACCCAUGUACAUG [Ac]", "apparent KD of MS2 coat protein": 19.6}
{"sequence": "GGGCGCGUGGACUGGCGUGCUCCGCUCCGUCGAGGACCGGUACGGCCGCCACUCGACAUGAGGAUCACCCAUGUGUGCGCUCGCG [#1 Exclusion - Tryptophan A Attempt #18 (HarryS)]", "apparent KD of MS2 coat protein": 7.36}
{"sequence": "AGCGACAUGCAUGAUACCAGCUACAUGAGGAUCACCCAUGUACGUCAGUAAUGACUGUGUAGCCCUUGGCAGCAUAGAGCAUGUA [Exclusion - Theophylline B (Freestyle 14)]", "apparent KD of MS2 coat protein": 18.4}
{"sequence": "UGUAACAUGAGGAUCACCCAUGUGAGUGAUACCAGACUAGUGUUAGUCCCUUGGCAGCACGCUGGGCGAGUGUGUAGUCUAUGCG [Same State - Theophylline A (Freestyle 16)]", "apparent KD of MS2 coat protein": 105}
